± gives the uncertainty stated by the source.
B1: Segment polarity protein dishevelled homolog DVL-3, residues 2 to 81; numbered along this chain, Q92997 (parent)
chain: GETKIIYHLDGQETPYLVKLPLPAERVTLADFKGVLQRPSYKFFFKSMDDDFGVVKEEISDDNAKLPCFNGRVVSWLVSA

Variants of: B1
Test: abundance fitness (aPCA) (normalised: wild type 0, dead -1); higher = more abundant; growth selection in yeast, the domain comes from the species named
Settings: Homo sapiens

Variant	abundance fitness
S60M	-0.199 ± 0.078
S60R	-0.273 ± 0.045
S60N	-0.111 ± 0.12
S60K	0.032 ± 0.067
S60G	-0.572 ± 0.055
S60A	-0.152 ± 0.051
S60T	-0.005 ± 0.055
S60F	-0.189 ± 0.12
S60W	-0.115 ± 0.057
S60L	-0.502 ± 0.084
S60P	-0.922 ± 0.16
S60C	0.1 ± 0.072
S60E	-0.269 ± 0.063
S60I	-0.325 ± 0.14
S60H	0.137 ± 0.095
S60D	-0.32 ± 0.098
K56H	-0.216 ± 0.1
K56V	0.102 ± 0.042
K56I	0.03 ± 0.096
K56F	-0.009 ± 0.082
K56R	0.041 ± 0.038
K56P	-0.496 ± 0.089
K56L	-0.094 ± 0.051
K56Q	-0.285 ± 0.072

Variant	abundance fitness
K56E	-0.431 ± 0.079
K56G	-0.63 ± 0.066
K56D	-0.738 ± 0.21
K56T	0.162 ± 0.051
K56C	0.103 ± 0.068
K56N	-0.678 ± 0.22
K56A	-0.32 ± 0.06
K56W	0.282 ± 0.048
K56S	-0.52 ± 0.071
K56Y	0.592 ± 0.083
D61Y	-0.666 ± 0.21
D61N	-0.33 ± 0.17
D61A	-0.578 ± 0.074
D61K	-0.984 ± 0.18
D61I	-0.384 ± 0.27
D61M	-0.335 ± 0.11
D61P	-0.566 ± 0.12
D61S	-0.594 ± 0.082
D61V	-0.695 ± 0.093
D61H	-0.695 ± 0.22
D61G	-0.791 ± 0.068
D61E	-0.257 ± 0.062
D61W	-0.679 ± 0.098
D61C	-0.407 ± 0.13

Variant	abundance fitness
D61L	-0.763 ± 0.1
D61T	-0.985 ± 0.18
D61F	-0.52 ± 0.17
D61Q	-0.082 ± 0.086
E57Y	-0.222 ± 0.13
E57N	-0.276 ± 0.14
E57R	0.44 ± 0.038
E57P	-0.475 ± 0.095
E57Q	0.256 ± 0.055
E57W	-0.526 ± 0.097
E57M	0.292 ± 0.061
E57G	-0.623 ± 0.084
E57C	-0.09 ± 0.086
E57V	0.254 ± 0.049
E57T	0.441 ± 0.052
E57S	-0.137 ± 0.055
E57A	-0.121 ± 0.056
E57K	0.502 ± 0.052
E57D	-0.904 ± 0.24
E57L	0.136 ± 0.05
E57H	-0.109 ± 0.11
V54W	0.13 ± 0.052
V54I	0.175 ± 0.09
V54P	0.069 ± 0.067

Variant	abundance fitness
V54M	-0.188 ± 0.079
V54Q	-0.241 ± 0.089
V54R	-0.556 ± 0.064
V54N	-0.005 ± 0.11
V54T	-0.178 ± 0.082
V54L	-0.083 ± 0.053
V54Y	-0.088 ± 0.12
V54K	-0.657 ± 0.14
V54S	-0.082 ± 0.055
A64D	-0.342 ± 0.14
A64C	-0.346 ± 0.12
A64E	-0.27 ± 0.077
N63L	-0.615 ± 0.08
N63F	-0.661 ± 0.21
N63A	-0.184 ± 0.057
N63E	0.009 ± 0.059
N63H	-0.093 ± 0.12
N63R	-0.238 ± 0.042
N63S	-0.104 ± 0.054
N63Y	-0.33 ± 0.12
N63T	-0.119 ± 0.061
N63C	-0.157 ± 0.087
N63I	-0.766 ± 0.24
N63K	-0.175 ± 0.07

Variant	abundance fitness
N63V	-0.59 ± 0.075
N63Q	-0.113 ± 0.069
N63G	-0.175 ± 0.041
V55M	-0.024 ± 0.066
V55H	0.365 ± 0.075
V55I	0.151 ± 0.07
V55S	-0.148 ± 0.054
V55A	-0.212 ± 0.058
V55D	-0.259 ± 0.12
V55G	-0.335 ± 0.046
V55Q	0.106 ± 0.06
V55R	0.225 ± 0.036
V55K	0.199 ± 0.061
V55W	-0.189 ± 0.061
V55L	-0.21 ± 0.055
V55T	0.195 ± 0.056
V55Y	0.2 ± 0.08
V55P	-0.895 ± 0.14
V55E	-0.104 ± 0.059
V55C	0.198 ± 0.073
V55F	0.204 ± 0.083
D62M	-0.441 ± 0.11
D62F	-0.536 ± 0.25
D62Q	-0.603 ± 0.13

Variant	abundance fitness
D62V	-0.674 ± 0.096
D62A	-0.875 ± 0.14
D62I	-0.744 ± 0.28
D62P	-0.575 ± 0.11
D62T	-0.906 ± 0.17
D62Y	-0.604 ± 0.26
D62W	-0.929 ± 0.16
D62L	-0.563 ± 0.081
D62R	-0.709 ± 0.082
D62S	-0.748 ± 0.11
D62C	-1.05 ± 0.28
D62G	-0.818 ± 0.093
D62N	-0.307 ± 0.14
E58K	-0.652 ± 0.15
E58A	-0.647 ± 0.097
E58S	-0.62 ± 0.088
E58V	-0.561 ± 0.082
E58Q	-0.513 ± 0.12
E58M	-0.476 ± 0.092
E58N	-0.536 ± 0.17
E58Y	-0.801 ± 0.19
E58G	-0.733 ± 0.073
E58P	-0.95 ± 0.16
E58R	-0.676 ± 0.069

Variant	abundance fitness
E58D	-0.942 ± 0.19
E58T	-0.456 ± 0.098
E58L	-0.492 ± 0.069
E58H	-0.227 ± 0.14
I59D	-1.21 ± 0.32
I59G	-0.696 ± 0.069
I59L	-0.64 ± 0.071
I59P	-0.777 ± 0.11
I59E	-0.677 ± 0.12
I59C	-0.593 ± 0.13
I59W	-0.724 ± 0.094
I59A	-0.419 ± 0.067
I59N	-0.736 ± 0.28
I59S	-0.704 ± 0.087
I59V	-0.395 ± 0.064
I59F	-0.592 ± 0.27
I59K	-0.675 ± 0.13
I59T	-0.811 ± 0.12
I59Y	-0.655 ± 0.19
I59R	-0.746 ± 0.065
I59Q	-1.11 ± 0.17
I59M	-0.474 ± 0.097
I59H	-0.628 ± 0.16
